Results published in patent US20240209080A1 (PROFOUNDBIO US, published 2024).

What was measured:
[1] = target: T1, human FOLR1 on cells (Hela, RPTEC/TERT1, OVCAR3, OV90, IGROV-1, JEG-3, KB, NCI-H441) (human, UniProt P15328 25-234); experiment: cell-based or functional assay
[2] = target: T2, Recombinant His-tagged FOLR1 (Example 5 ELISA) (UniProt P15328 25-233, limits assumed); experiment: ELISA on coated recombinant His-tagged FOLR1, OD450; unit from the axis 'ADC conc ng/ml'
T2 construct: also called FOLR1-his; recombinant protein FOLR-1; not shown: His tag

[3] = target: T3, human FOLR1 protein, His Tag (ACRO-FO1-H52H1) (human, UniProt P15328 25-233); experiment: ELISA OD450 on human FOLR1 divided by OD450 of IgG level ELISA
T3 construct: not shown: His tag

[4] = target: T2, Recombinant His-tagged FOLR1 (Example 5 …); experiment: ELISA on coated recombinant His-tagged FOLR1, OD450; unit from the axis 'ng/ml'; curves labelled without '-ADC'
[5] = target: T1, human FOLR1 on cells (Hela, …); experiment: flow cytometry on JEG-3 cells, PE anti-human Fc; unit from the axis 'Con.nM'

T1 sequence (P15328 25-234): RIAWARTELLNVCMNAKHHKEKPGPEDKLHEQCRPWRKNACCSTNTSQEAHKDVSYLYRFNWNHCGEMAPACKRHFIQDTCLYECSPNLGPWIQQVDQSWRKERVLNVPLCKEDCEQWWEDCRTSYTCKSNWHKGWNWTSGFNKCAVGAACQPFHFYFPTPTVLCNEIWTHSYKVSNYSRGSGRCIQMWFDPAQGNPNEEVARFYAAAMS
T2 sequence (P15328 25-233 limits assumed): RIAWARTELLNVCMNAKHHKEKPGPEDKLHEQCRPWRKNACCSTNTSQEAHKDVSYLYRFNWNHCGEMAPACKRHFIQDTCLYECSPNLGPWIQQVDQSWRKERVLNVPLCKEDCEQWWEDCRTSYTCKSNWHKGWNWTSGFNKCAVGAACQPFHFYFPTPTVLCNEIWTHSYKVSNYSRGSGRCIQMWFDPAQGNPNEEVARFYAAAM
T3 sequence (P15328 25-233 limits assumed): as above

B1: FR107-ADC (reference antibody mirvetuximab huFR107 conjugated to mc-VC-PAB-MMAE) (antibody, V domains shown)
VH: QVQLVQSGAEVVKPGASVKISCKASGYTFTGYFMNWVKQSPGQSLEWIGRIHPYDGDTFYNQKFQGKATLTVDKSSNTAHMELLSLTSEDFAVYYCTRYDGSRAMDYWGQGTTVTVSS
VL: DIVLTQSPLSLAVSLGQPAIISCKASQSVSFAGTSLMHWYHQKPGQQPRLLIYRASNLEAGVPDRFSGSGSKTDFTLTISPVEAEDAATYYCQQSREYPYTFGGGTKLEIK
modifications: mc-VC-PAB-MMAE on cysteine thiols after TCEP reduction (positions not stated; DAR within 3~4)
notes: Control conjugate
[1]
  Internalization ratio (%), Hela, 4 h: 58.4%
  Internalization ratio (%), Hela, 24 h: 75.1%
  Internalization ratio (%), OV90, 4 h: 28%
  Internalization ratio (%), OVCAR3, 4 h: 26.3%
  Internalization ratio (%), OVCAR3, 24 h: 44.8%
[2]
  EC50: 3.39 ng/mL

B2: F8-ADC (antibody F8 conjugated to mc-VC-PAB-MMAE) (antibody, V domains shown)
VH: EVQLLESGGGVVQHGRSLRLSCAASGFTFSSYGMHWVRQAPGKGLEWVAVISYDGSNKYYADSVKGRFTISRDNSKNTLYLQMNSLRAEDTAVYYCARPRAYYGAYGSSFDYWGQGTQVTVSS
VL: EIVMTQSPSSVSASVGDRVAITCRASQGISSWLAWYQQKPGKAPKLLIYAASSLQSGVPSRFSGSGSGTDFTLTISSLQPEDFATYYCQQSYSTPLTFGGGTKVDIK
modifications: mc-VC-PAB-MMAE on cysteine thiols after TCEP reduction (positions not stated; DAR within 3~4)
notes: Antibody-drug conjugate; also called F8 immunoconjugate
[1]
  Internalization ratio (%), Hela, 4 h: 45.7%
  Internalization ratio (%), Hela, 24 h: 73.1%
  Internalization ratio (%), OV90, 4 h: 32.7%
  Internalization ratio (%), OVCAR3, 4 h: 34.5%
  Internalization ratio (%), OVCAR3, 24 h: 47.6%
[2]
  EC50: 6.53 ng/mL

B3: anti-FOLR1 antibody F1 (antibody, V domains shown)
VH: EVQLLESGGGVVQPGRSLRLSCAASGFTFSSYGMHWVRQAPGKGLEWVAVISYDGSNKYYADSVKGRFTISRDNSKNTLYLQMNSLRAEDTAVYYCARPRAYYGAYGSSFDYWGQGTQVTVSS
VL: EIVMTQSPSSVSASVGDRVAITCRASQGISSWLAWYQQKPGKAPKLLIYAASSLQSGVPSRFSGSGSGTDFTLTISSLQPEDFATYYCQQSYSTPLTFGGGTKVDIK
notes: also called clone F1
[3]
  Target binding/IgG level: 1.08 ratio of OD450

B4: F26-ADC (antibody F26 conjugated to mc-VC-PAB-MMAE) (antibody, V domains shown)
VH: EVQLLESGGGVVQRGRSLRLSCAASGFTFSSYGMHWVRQAPGKGLEWVAVISYDGSNKYYADSVKGRFTISRDNSKNTLYLPMNSLRAEDTAVYYCARPRAYYGAYGSSFDYWGQGTQVTVSS
VL: EIVMTQSPSSVSASVGDRVAITCRASQGISSWLAWYQQKPGKAPKLLIYAASSLQSGVPSRFSGSGSGTDFTLTISSLQPEDFATYYCQQSYSTPLTFGGGTKVDIK
modifications: mc-VC-PAB-MMAE on cysteine thiols after TCEP reduction (positions not stated; DAR within 3~4)
notes: Antibody-drug conjugate; also called F26 immunoconjugate
[1]
  Internalization ratio (%), Hela, 4 h: 43.3%
  Internalization ratio (%), Hela, 24 h: 75.5%
  Internalization ratio (%), OV90, 4 h: 21.6%
  Internalization ratio (%), OVCAR3, 4 h: 38.3%
  Internalization ratio (%), OVCAR3, 24 h: 48.1%
[2]
  EC50: 8.04 ng/mL

B5: anti-FOLR1 antibody F100 (antibody, V domains shown)
VH: EVQLLESGGGVVQPGRSLRLSCAASGFTFSSYGMHWVRQAPGKGLEWVAVISYDGSNKYYADSVKGRFTISRPNSKNTLYLQMNSLRAEDTAVYYCARPRAYYGAYGSSFDYWGQGTQVTVSS
VL: EIVMTQSPSSVSASVGDRVAITCRASQGISSWLAWYQQKPGKAPKLLIYAASSLQSGVPSRFSGSGSGTDFTLTISSLQPEDFATYYCQQSYSTPLTFGGGTKVDIK
notes: also called clone F100
[3]
  Target binding/IgG level: 1.48 ratio of OD450

B6: anti-FOLR1 antibody F48 (antibody, V domains shown)
VH: EVQLLESGGGVVQPGRSLRLSCAASGFTFSSYGMHWVRQAPGKGLEWVAVISYDGSNKYYADSVKGRFTISRDNSKNTLYLHMNSLRAEDTAVYYCARPRAYYGAYGSSFDYWGQGTQVTVSS
VL: EIVMTQSPSSVSASVGDRVAITCRASQGISSWLAWYQQKPGKAPKLLIYAASSLQSGVPSRFSGSGSGTDFTLTISSLQPEDFATYYCQQSYSTPLTFGGGTKVDIK
notes: also called clone F48
[3]
  Target binding/IgG level: 1.12 ratio of OD450

B7: anti-FOLR1 antibody F8 (antibody, V domains shown)
VH: EVQLLESGGGVVQHGRSLRLSCAASGFTFSSYGMHWVRQAPGKGLEWVAVISYDGSNKYYADSVKGRFTISRDNSKNTLYLQMNSLRAEDTAVYYCARPRAYYGAYGSSFDYWGQGTQVTVSS
VL: EIVMTQSPSSVSASVGDRVAITCRASQGISSWLAWYQQKPGKAPKLLIYAASSLQSGVPSRFSGSGSGTDFTLTISSLQPEDFATYYCQQSYSTPLTFGGGTKVDIK
notes: also called clone F8
[3]
  Target binding/IgG level: 1.12 ratio of OD450
[4]
  EC50: 8.48 ng/mL

B8: anti-FOLR1 antibody F138 (antibody, V domains shown)
VH: EVQLLESGGGVVQPGRSLRLSCAASGFTFSSYGMHWVRQAPGKGLEWVAVISYDGSNKYYADSVKGRFTISTHNSKNTLYLQMNSLRAEDTAVYYCARPRAYYGAYGSSFDYWGQGTQVTVSS
VL: EIVMTQSPSSVSASVGDRVAITCRASQGISSWLAWYQQKPGKAPKLLIYAASSLQSGVPSRFSGSGSGTDFTLTISSLQPEDFATYYCQQSYSTPLTFGGGTKVDIK
notes: also called clone F138
[3]
  Target binding/IgG level: 1.2 ratio of OD450

B9: anti-FOLR1 antibody F26 (antibody, V domains shown)
VH: EVQLLESGGGVVQRGRSLRLSCAASGFTFSSYGMHWVRQAPGKGLEWVAVISYDGSNKYYADSVKGRFTISRDNSKNTLYLPMNSLRAEDTAVYYCARPRAYYGAYGSSFDYWGQGTQVTVSS
VL: EIVMTQSPSSVSASVGDRVAITCRASQGISSWLAWYQQKPGKAPKLLIYAASSLQSGVPSRFSGSGSGTDFTLTISSLQPEDFATYYCQQSYSTPLTFGGGTKVDIK
notes: also called clone F26
[3]
  Target binding/IgG level: 1.21 ratio of OD450
[4]
  EC50: 4.68 ng/mL

B10: anti-FOLR1 antibody F131 (antibody, V domains shown)
VH: EVQLLESGGGVVQPGRSLRLSCAASGFTFSSYGMHWVRQAPGKGLEWVAVISYDGSNKYYADSVKGRFTISRANSKNTLYLQMNSLRAEDTAVYYCARPRAYYGAYGSSFDYWGQGTQVTVSS
VL: EIVMTQSPSSVSASVGDRVAITCRASQGISSWLAWYQQKPGKAPKLLIYAASSLQSGVPSRFSGSGSGTDFTLTISSLQPEDFATYYCQQSYSTPLTFGGGTKVDIK
notes: also called F131 mAb; clone F131
[3]
  Target binding/IgG level: 1.02 ratio of OD450
[5]
  EC50: 1.55 nM
[4]
  EC50: 8.46 ng/mL

B11: anti-FOLR1 antibody F123 (antibody, V domains shown)
VH: EVQLLESGGGVVQPERSLRLSCAASGFTFSSYGMHWVRQAPGKGLEWVAVISYDGSNKYYADSVKGRFTISRANSKNTLYLQMNSLRAEDTAVYYCARPRAYYGAYGSSFDYWGQGTQVTVSS
VL: EIVMTQSPSSVSASVGDRVAITCRASQGISSWLAWYQQKPGKAPKLLIYAASSLQSGVPSRFSGSGSGTDFTLTISSLQPEDFATYYCQQSYSTPLTFGGGTKVDIK
notes: also called clone F123
[3]
  Target binding/IgG level: 1.06 ratio of OD450

B12: F131-ADC (antibody F131 conjugated to mc-VC-PAB-MMAE) (antibody, V domains shown)
VH: EVQLLESGGGVVQPGRSLRLSCAASGFTFSSYGMHWVRQAPGKGLEWVAVISYDGSNKYYADSVKGRFTISRANSKNTLYLQMNSLRAEDTAVYYCARPRAYYGAYGSSFDYWGQGTQVTVSS
VL: EIVMTQSPSSVSASVGDRVAITCRASQGISSWLAWYQQKPGKAPKLLIYAASSLQSGVPSRFSGSGSGTDFTLTISSLQPEDFATYYCQQSYSTPLTFGGGTKVDIK
modifications: mc-VC-PAB-MMAE on cysteine thiols after TCEP reduction (positions not stated; DAR within 3~4)
notes: Antibody-drug conjugate; also called F131 immunoconjugate
[1]
  Internalization ratio (%), Hela, 4 h: 50%
  Internalization ratio (%), Hela, 24 h: 74.8%
  Internalization ratio (%), OV90, 4 h: 15%
  Internalization ratio (%), OVCAR3, 4 h: 35.2%
  Internalization ratio (%), OVCAR3, 24 h: 47.7%
[2]
  EC50: 6.64 ng/mL

B13: anti-FOLR1 antibody F112 (antibody, V domains shown)
VH: EVQLLESGGGVVQPGRSLRLSCAASGFTFSSYGMHWVRQAPGKGLEWVAVISYDGSNKYYADSVKGRFTISRHNSKNTLYLQMNSLRAEDTAVYYCARPRAYYGAYGSSFDYWGQGTQVTVSS
VL: EIVMTQSPSSVSASVGDRVAITCRASQGISSWLAWYQQKPGKAPKLLIYAASSLQSGVPSRFSGSGSGTDFTLTISSLQPEDFATYYCQQSYSTPLTFGGGTKVDIK
notes: also called clone F112
[3]
  Target binding/IgG level: 1.12 ratio of OD450

B14: anti-FOLR1 antibody F40 (antibody, V domains shown)
VH: EVQLLESGGGVVQPGRSLRLSCAASGFTFSSYAMHWVRQAPGKGLEWVAVISYDGSNKYYADSVKGRFIISRDNSKNTVYLQMNSLRAEDTAVYYCARPTYVFTYTGSSFDYWGQGTQVTVSS
VL: DIQVTQSPSSLSASLGDTVSITCRASRGLTDSVAWYQQKPGQAPKLLIYAASTLQSGVPSRFGGSGSGSYFTLTITSLQPEDVATYYCQNYKSAPWTFGQGTKVEIK
notes: also called clone F40
[3]
  Target binding/IgG level: 1.02 ratio of OD450
